Data on 1 substance can be found in article PMC3002392.

The experiment concerns the target Na+,K+-ATPase α-subunit (endogenous, MDCK cells) (dog (endogenous in MDCK)) (UniProt P50997). Briefly: co-IP.

Consider “AS160 (endogenous, MDCK cells) (natural protein)”, for which the fold increase of co-precipitated AS160 with 40 uM Compound C against vehicle is 7 fold.
